One data set has as its target T1, RecQ4 427-1116 (Homo sapiens, UniProt O94761 427-1116).
T1 sequence: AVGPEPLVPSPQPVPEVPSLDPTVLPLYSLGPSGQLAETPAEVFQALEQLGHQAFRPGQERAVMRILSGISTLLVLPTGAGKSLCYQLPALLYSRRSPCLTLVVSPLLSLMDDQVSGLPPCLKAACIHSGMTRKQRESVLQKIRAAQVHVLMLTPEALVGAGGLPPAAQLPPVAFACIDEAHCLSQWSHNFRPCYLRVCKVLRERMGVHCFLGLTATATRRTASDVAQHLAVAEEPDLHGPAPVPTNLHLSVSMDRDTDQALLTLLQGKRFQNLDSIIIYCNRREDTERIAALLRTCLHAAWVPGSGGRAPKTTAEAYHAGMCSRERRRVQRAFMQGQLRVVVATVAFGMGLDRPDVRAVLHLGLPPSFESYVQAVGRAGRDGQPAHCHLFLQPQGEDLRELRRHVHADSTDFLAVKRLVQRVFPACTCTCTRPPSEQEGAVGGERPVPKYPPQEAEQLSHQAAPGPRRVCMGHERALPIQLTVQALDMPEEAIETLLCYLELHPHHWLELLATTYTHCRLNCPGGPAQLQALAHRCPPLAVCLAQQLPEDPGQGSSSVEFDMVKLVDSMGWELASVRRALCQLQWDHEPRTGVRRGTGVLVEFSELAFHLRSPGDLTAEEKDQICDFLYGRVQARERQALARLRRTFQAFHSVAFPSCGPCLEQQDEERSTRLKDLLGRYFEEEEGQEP
Kind of data set: fluorescence polarization; apparent Kd; 20 mM HEPES pH 8.0, 10 mM NaCl, 5% glycerol, 1 mM MgCl2, 0.5 mM TCEP, 0.5 nM Cy3-ssDNA; temperature not stated. The conditions noted are these: protein: recombinant; tags: Trx-His6 removed by 3C protease; label: 5' Cy3. For orientation: In fluorescence polarisation assays a small probe gives low polarisation when free and higher when bound to something large.

Another data set addresses T2, RecQ4 427-1208 WT (Homo sapiens, UniProt O94761 427-1208).
T2 sequence: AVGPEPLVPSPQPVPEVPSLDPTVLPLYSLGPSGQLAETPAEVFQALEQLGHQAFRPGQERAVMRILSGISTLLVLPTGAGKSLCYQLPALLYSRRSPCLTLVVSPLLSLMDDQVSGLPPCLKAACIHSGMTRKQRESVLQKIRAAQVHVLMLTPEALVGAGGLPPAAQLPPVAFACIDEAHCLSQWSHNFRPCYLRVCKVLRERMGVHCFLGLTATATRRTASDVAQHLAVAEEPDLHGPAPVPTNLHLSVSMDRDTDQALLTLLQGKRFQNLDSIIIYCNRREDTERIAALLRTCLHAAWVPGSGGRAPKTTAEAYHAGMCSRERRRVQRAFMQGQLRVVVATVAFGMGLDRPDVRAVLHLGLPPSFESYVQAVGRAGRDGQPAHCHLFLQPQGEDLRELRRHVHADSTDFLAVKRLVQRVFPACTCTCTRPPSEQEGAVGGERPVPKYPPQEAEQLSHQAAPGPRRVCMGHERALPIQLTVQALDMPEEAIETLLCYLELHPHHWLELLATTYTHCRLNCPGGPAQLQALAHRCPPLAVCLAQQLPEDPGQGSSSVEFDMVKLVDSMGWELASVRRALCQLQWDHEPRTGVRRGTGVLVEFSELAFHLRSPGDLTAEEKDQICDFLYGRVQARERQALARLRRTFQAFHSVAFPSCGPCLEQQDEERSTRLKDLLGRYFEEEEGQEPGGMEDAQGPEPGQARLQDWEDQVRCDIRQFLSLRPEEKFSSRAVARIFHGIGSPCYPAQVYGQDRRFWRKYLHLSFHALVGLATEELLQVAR
Described as above. To be noted: protein: recombinant; tags: Trx-His6 removed by 3C protease; label: 5' Cy3.

Regarding CCATTCCACCCTCTATTTTTTTTTTTTTTT (ssDNA) [T3-Cy3], the Kd is 18.1 ± 0.8 nM with RecQ4 427-1116 and 4.6 ± 0.4 nM with RecQ4 427-1208 WT.

The values above are taken from publication PMC5490261, “The structural and functional characterization of human RecQ4 reveals insights into its helicase mechanism”.
